17 sequences from patent publication US20240376151A1, “STAPLED PEPTIDES AND METHODS THEREOF” (FOG PHARMACEUTICALS, INC., priority 2022, published 2024) can be followed below.

For this test, the target named is T1, MDM2 (Homo sapiens, UniProt Q00987).
T1 construct: made in house
The test is described as follows: Naive Library Presenter Screening (phage, NGS), MDM2. In kind it is binding. Conditions: for interaction data, BLANK: Blank = Media only.

The mark [1] stands for this setting: MDM2 clusters (C82, C85), first column.
Setting [2] is: MDM2 clusters (C82, C85), second column.
Setting [3] is: MDM2 clusters (C82, C85), target concentration 10 nM.
The mark [4] stands for this setting: MDM2 clusters (C82, C85), target concentration 30 nM.
The mark [5] stands for this setting: MDM2 clusters (C82, C85), target concentration 100 nM.
Where [6] appears, read: MDM2 clusters (C82, C85), target concentration 300 nM.
The mark [7] stands for this setting: MDM2 clusters (C82, C85), target concentration 1000 nM, first column.
Where [8] appears, read: MDM2 clusters (C82, C85), target concentration 1000 nM, second column.

Numbered stars: 1 amine (or outer) side, 2 acyl side, 3 side chain; on linkers, the order of the positions; unused ones are H or OH. Bridge positions count the residues as written; N and C are the ends. Ends that are not written are not given here. Phenylene(1,4-NHCOCH2)2 = O=C(C[*:1])Nc1ccc(NC(=O)C[*:2])cc1

T1 sequence (Q00987 25-109): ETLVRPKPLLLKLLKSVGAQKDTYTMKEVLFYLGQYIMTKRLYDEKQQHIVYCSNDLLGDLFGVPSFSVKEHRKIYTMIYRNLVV

As to “DPAHRQCFTAAWRCMMT (linker 7-14 via Phenylene(1,4-NHCOCH2)2 (inferred))”, the “interaction data, BLANK” value by setting is: under setting [1], 0; under setting [2], 0. Also, under setting [3], the “interaction data at Target Concentration 10” value worked out at 0. Further, the “interaction data at Target Concentration 30” value under setting [4] stood at 42. Besides, under setting [5], the “interaction data at Target Concentration 100” value is 149. The “interaction data at Target Concentration 300” value under setting [6] was found to be 156. In addition, the “interaction data at Target Concentration 1000” value is on record as 202 under setting [7] and 149 under setting [8].

Consider “DPAHYECTDAAFECYWF (linker 7-14 via Phenylene(1,4-NHCOCH2)2 (inferred))”, for which the “interaction data, BLANK” value under setting [1] is on record as 0 and the “interaction data, BLANK” value under setting [2] is on record as 0. Under setting [3], the “interaction data at Target Concentration 10” value is given as 0. The “interaction data at Target Concentration 30” value under setting [4] was 2. Moreover, the “interaction data at Target Concentration 100” value under setting [5] came to 33. Further, under setting [6], the “interaction data at Target Concentration 300” value worked out at 74. The “interaction data at Target Concentration 1000” value was determined as 57 under setting [7] and 82 under setting [8].

Take “DPAINTCQDAAFWCYWS (linker 7-14 via Phenylene(1,4-NHCOCH2)2 (inferred))”: the “interaction data, BLANK” value is recorded as 0 under setting [1] and 0 under setting [2]. Moreover, under setting [3], the “interaction data at Target Concentration 10” value was 0. Moreover, the “interaction data at Target Concentration 30” value under setting [4] is 131. Under setting [5], the “interaction data at Target Concentration 100” value turned out to be 203. Under setting [6], the “interaction data at Target Concentration 300” value turned out to be 226. In addition, the “interaction data at Target Concentration 1000” value reads like this: under setting [7], 185; under setting [8], 315.

In the case of “DPALFSCDSAAFSCYWY (linker 7-14 via Phenylene(1,4-NHCOCH2)2 (inferred); not fully specified (C-terminus))”, the “interaction data, BLANK” value by setting is: under setting [1], 0; under setting [2], 0. Also, under setting [3], the “interaction data at Target Concentration 10” value was determined as 0. Besides, the “interaction data at Target Concentration 30” value under setting [4] is recorded as 0. In addition, the “interaction data at Target Concentration 100” value under setting [5] is given as 25. For the same sequence, under setting [6], the “interaction data at Target Concentration 300” value stood at 17. The “interaction data at Target Concentration 1000” value by setting is: under setting [7], 25; under setting [8], 57.

With “DPALMQCTEAAFWCYWE (linker 7-14 via Phenylene(1,4-NHCOCH2)2 (inferred); not fully specified (C-terminus))”, the “interaction data, BLANK” value was determined as 0 under setting [1] and 0 under setting [2]. The “interaction data at Target Concentration 10” value under setting [3] turned out to be 0. Also, the “interaction data at Target Concentration 30” value under setting [4] was found to be 0. For the same sequence, the “interaction data at Target Concentration 100” value under setting [5] turned out to be 24. Further, the “interaction data at Target Concentration 300” value under setting [6] was found to be 36. The “interaction data at Target Concentration 1000” value came to 24 under setting [7] and 32 under setting [8].

As to “DPAMSNCFMAAWECLIQ (linker 7-14 via Phenylene(1,4-NHCOCH2)2 (inferred); not fully specified (C-terminus))”, the “interaction data, BLANK” value by setting is: under setting [1], 0; under setting [2], 0. Under setting [3], the “interaction data at Target Concentration 10” value was 49. The “interaction data at Target Concentration 30” value under setting [4] turned out to be 104. For the same sequence, the “interaction data at Target Concentration 100” value under setting [5] is reported as 206. Besides, under setting [6], the “interaction data at Target Concentration 300” value was found to be 192. The “interaction data at Target Concentration 1000” value is given as 185 under setting [7] and 176 under setting [8].

For the sequence “DPANHACFQAAWDCQFF (linker 7-14 via Phenylene(1,4-NHCOCH2)2 (inferred))”, the “interaction data at Target Concentration 10” value (MDM2 target concentration 10 nM) was determined as 11. The “interaction data at Target Concentration 30” value (MDM2 target concentration 30 nM) is listed as 154. Also, the “interaction data at Target Concentration 100” value (MDM2 target concentration 100 nM) was found to be 643. Besides, where the note is “MDM2 target concentration 300 nM”, the “interaction data at Target Concentration 300” value was 1045. The “interaction data at Target Concentration 1000” value runs as follows: (MDM2 target concentration 1000 nM, first column) 776; (MDM2 target concentration 1000 nM, second column) 1088.

Turning to “DPAQEDCHAAAFWCIWD (DPAQEDCHAAAFWCIWD-NH2; linker 7-14 via Phenylene(1,4-NHCOCH2)2 (inferred))”, the “interaction data, BLANK” value reads like this: under setting [1], 0; under setting [2], 0. Also, under setting [3], the “interaction data at Target Concentration 10” value is on record as 0. Also, the “interaction data at Target Concentration 30” value under setting [4] was 0. Under setting [5], the “interaction data at Target Concentration 100” value stood at 15. The “interaction data at Target Concentration 300” value under setting [6] came to 37. The “interaction data at Target Concentration 1000” value runs as follows: under setting [7], 23; under setting [8], 48.

As for “DPAQHHCQQAAFWCQWW (DPAQHHCQQAAFWCQWW-NH2; linker 7-14 via Phenylene(1,4-NHCOCH2)2 (inferred))”, the “interaction data, BLANK” value is given as 0 under setting [1] and 0 under setting [2]. Also, the “interaction data at Target Concentration 10” value under setting [3] amounted to 0. In addition, the “interaction data at Target Concentration 30” value under setting [4] was 0. For the same sequence, the “interaction data at Target Concentration 100” value under setting [5] came out at 13. Also, the “interaction data at Target Concentration 300” value under setting [6] was 13. Besides, the “interaction data at Target Concentration 1000” value reads like this: under setting [7], 36; under setting [8], 18.

With “DPAQQDCFLAAWDCVWQ (DPAQQDCFLAAWDCVWQ-NH2; linker 7-14 via Phenylene(1,4-NHCOCH2)2 (inferred))”, the “interaction data, BLANK” value came out at 0 under setting [1] and 0 under setting [2]. Under setting [3], the “interaction data at Target Concentration 10” value worked out at 0. The “interaction data at Target Concentration 30” value under setting [4] stood at 12. Also, the “interaction data at Target Concentration 100” value under setting [5] was 132. Further, under setting [6], the “interaction data at Target Concentration 300” value stood at 166. In addition, the “interaction data at Target Concentration 1000” value came out at 104 under setting [7] and 237 under setting [8].

In the case of “DPAQSDCFQAAWECVAN (DPAQSDCFQAAWECVAN-NH2; linker 7-14 via Phenylene(1,4-NHCOCH2)2 (inferred))”, the “interaction data, BLANK” value under setting [1] was 0 and the “interaction data, BLANK” value under setting [2] was found to be 0. For the same sequence, the “interaction data at Target Concentration 10” value under setting [3] is reported as 0. In addition, the “interaction data at Target Concentration 30” value under setting [4] was determined as 0. The “interaction data at Target Concentration 100” value under setting [5] came out at 35. Besides, under setting [6], the “interaction data at Target Concentration 300” value amounted to 47. Moreover, the “interaction data at Target Concentration 1000” value under setting [7] came to 52 and the “interaction data at Target Concentration 1000” value under setting [8] was 29.

With “DPARLRCQDAAFACMWY (DPARLRCQDAAFACMWY-NH2; linker 7-14 via Phenylene(1,4-NHCOCH2)2 (inferred))”, the “interaction data, BLANK” value reads like this: under setting [1], 0; under setting [2], 0. The “interaction data at Target Concentration 10” value under setting [3] amounted to 0. The “interaction data at Target Concentration 30” value under setting [4] was determined as 0. The “interaction data at Target Concentration 100” value under setting [5] came to 17. Further, the “interaction data at Target Concentration 300” value under setting [6] was found to be 31. The “interaction data at Target Concentration 1000” value under setting [7] is reported as 32 and the “interaction data at Target Concentration 1000” value under setting [8] was 37.

Regarding “DPARQDCFSAAWMCMAI (DPARQDCFSAAWMCMAI-NH2; linker 7-14 via Phenylene(1,4-NHCOCH2)2 (inferred))”, the “interaction data, BLANK” value by setting is: under setting [1], 0; under setting [2], 0. For the same sequence, the “interaction data at Target Concentration 10” value under setting [3] is listed as 0. For the same sequence, under setting [4], the “interaction data at Target Concentration 30” value was 1. The “interaction data at Target Concentration 100” value under setting [5] is given as 94. The “interaction data at Target Concentration 300” value under setting [6] is listed as 107. The “interaction data at Target Concentration 1000” value by setting is: under setting [7], 120; under setting [8], 114.

For “DPARRECMDAAFWCQWV (DPARRECMDAAFWCQWV-NH2; linker 7-14 via Phenylene(1,4-NHCOCH2)2 (inferred))”, the “interaction data, BLANK” value is, setting by setting: under setting [1], 0; under setting [2], 0. The “interaction data at Target Concentration 10” value under setting [3] is given as 0. The “interaction data at Target Concentration 30” value under setting [4] is 53. Also, the “interaction data at Target Concentration 100” value under setting [5] was determined as 106. Under setting [6], the “interaction data at Target Concentration 300” value came out at 232. In addition, the “interaction data at Target Concentration 1000” value runs as follows: under setting [7], 148; under setting [8], 261.

As to “DPARVHCNQAAFMCHWV (DPARVHCNQAAFMCHWV-NH2; linker 7-14 via Phenylene(1,4-NHCOCH2)2 (inferred))”, the “interaction data, BLANK” value came to 0 under setting [1] and 0 under setting [2]. The “interaction data at Target Concentration 10” value under setting [3] came to 0. Moreover, the “interaction data at Target Concentration 30” value under setting [4] is 0. Further, the “interaction data at Target Concentration 100” value under setting [5] is 9. Besides, under setting [6], the “interaction data at Target Concentration 300” value is recorded as 6. Also, the “interaction data at Target Concentration 1000” value is reported as 14 under setting [7] and 8 under setting [8].

Regarding “DPASADCFNAAWDCMWI (DPASADCFNAAWDCMWI-NH2; linker 7-14 via Phenylene(1,4-NHCOCH2)2 (inferred))”, the “interaction data, BLANK” value by setting is: under setting [1], 0; under setting [2], 0. Also, the “interaction data at Target Concentration 10” value under setting [3] was determined as 0. In addition, the “interaction data at Target Concentration 30” value under setting [4] was found to be 19. The “interaction data at Target Concentration 100” value under setting [5] worked out at 102. For the same sequence, under setting [6], the “interaction data at Target Concentration 300” value was determined as 165. The “interaction data at Target Concentration 1000” value under setting [7] is listed as 124 and the “interaction data at Target Concentration 1000” value under setting [8] was 209.

Regarding “DPASAECFFAAWQCIAT (DPASAECFFAAWQCIAT-NH2; linker 7-14 via Phenylene(1,4-NHCOCH2)2 (inferred))”, the “interaction data, BLANK” value is on record as 0 under setting [1] and 0 under setting [2]. The “interaction data at Target Concentration 10” value under setting [3] was 0. Moreover, the “interaction data at Target Concentration 30” value under setting [4] was found to be 8. Also, the “interaction data at Target Concentration 100” value under setting [5] worked out at 28. The “interaction data at Target Concentration 300” value under setting [6] is 27. The “interaction data at Target Concentration 1000” value runs as follows: under setting [7], 33; under setting [8], 14.
